# Data reported in patent US20230295272A1.
# Assays:
# [1] = target: canine parvovirus (CPV), CPV-2c TS02 strain, purified virus (canine parvovirus CPV-2c (TS02 strain)); experiment: indirect ELISA, purified CPV coated at 10 ug/mL, purified nanobody diluted 1:100, anti-His-HRP
# [2] = target: canine parvovirus (CPV), CPV-2c TS02 strain, purified virus (canine parvovirus CPV-2c (TS02 strain)); experiment: indirect ELISA, purified CPV coated at 10 ug/mL, purified nanobody diluted 1:10,000, anti-His-HRP
# [3] = target: canine parvovirus (CPV), CPV-2c TS02 strain, purified virus (canine parvovirus CPV-2c (TS02 strain)); experiment: indirect ELISA, purified CPV coated at 10 ug/mL, purified nanobody diluted 1:1,000, anti-His-HRP
# [4] = target: canine parvovirus (CPV), CPV-2c TS02 strain, purified virus (canine parvovirus CPV-2c (TS02 strain)); experiment: indirect ELISA, purified CPV coated at 10 ug/mL, purified nanobody diluted 1:10, anti-His-HRP
# [5] = target: canine parvovirus (CPV), CPV-2c TS02 strain, purified virus (canine parvovirus CPV-2c (TS02 strain)); experiment: cell-based or functional assay
binder,measurement,setting,value
canine parvovirus (CPV) nanobody CPV-VHH-E3 (VHH) VHH: QLQLVESGGGSVQPGGSLRLSCAASGFTLDFYRVGWFRQAPGKERQGVACIGSAGDRTFYVDSVKGRFTISKDNTKNTVYLQMNSLKPEDTAVYYCAAVLSPRITSVQAMCTHHGEGFDYWGQGTQVTVSS,OD450nm average value,[1],2.6 OD450nm
same,OD450nm average value,[2],0.17 OD450nm
same,OD450nm average value,[3],2.24 OD450nm
same,OD450nm average value,[4],2.81 OD450nm
same,CPE number at antibody dilution 1:10 (of 3 wells with CPE),[5],3
same,"neutralizing titer (virus neutralization test, CPE on CRFK cells) (titer (1:x dilution))",[5],< 10
